Results taken from patent US20040091503A1.

Biological target: murine GM-CSF receptor (on FDC-P1 cells) (murine) (UniProt Q00941)
Assay: cell-based or functional assay

Chain of UniProt Q00941 (Q00941 30-388, chain 1 of 2): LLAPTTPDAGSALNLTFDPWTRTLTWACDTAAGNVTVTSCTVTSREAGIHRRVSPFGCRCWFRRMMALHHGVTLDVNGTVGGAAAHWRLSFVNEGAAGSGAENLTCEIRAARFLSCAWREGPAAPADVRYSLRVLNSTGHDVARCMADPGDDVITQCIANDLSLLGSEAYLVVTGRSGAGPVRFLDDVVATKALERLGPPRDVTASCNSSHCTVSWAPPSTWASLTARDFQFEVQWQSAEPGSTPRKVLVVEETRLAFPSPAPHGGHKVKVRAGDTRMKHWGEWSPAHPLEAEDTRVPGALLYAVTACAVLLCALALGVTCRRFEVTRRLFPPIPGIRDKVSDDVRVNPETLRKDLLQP
Chain of UniProt Q00941 (P26955 23-896, chain 2 of 2, further chain): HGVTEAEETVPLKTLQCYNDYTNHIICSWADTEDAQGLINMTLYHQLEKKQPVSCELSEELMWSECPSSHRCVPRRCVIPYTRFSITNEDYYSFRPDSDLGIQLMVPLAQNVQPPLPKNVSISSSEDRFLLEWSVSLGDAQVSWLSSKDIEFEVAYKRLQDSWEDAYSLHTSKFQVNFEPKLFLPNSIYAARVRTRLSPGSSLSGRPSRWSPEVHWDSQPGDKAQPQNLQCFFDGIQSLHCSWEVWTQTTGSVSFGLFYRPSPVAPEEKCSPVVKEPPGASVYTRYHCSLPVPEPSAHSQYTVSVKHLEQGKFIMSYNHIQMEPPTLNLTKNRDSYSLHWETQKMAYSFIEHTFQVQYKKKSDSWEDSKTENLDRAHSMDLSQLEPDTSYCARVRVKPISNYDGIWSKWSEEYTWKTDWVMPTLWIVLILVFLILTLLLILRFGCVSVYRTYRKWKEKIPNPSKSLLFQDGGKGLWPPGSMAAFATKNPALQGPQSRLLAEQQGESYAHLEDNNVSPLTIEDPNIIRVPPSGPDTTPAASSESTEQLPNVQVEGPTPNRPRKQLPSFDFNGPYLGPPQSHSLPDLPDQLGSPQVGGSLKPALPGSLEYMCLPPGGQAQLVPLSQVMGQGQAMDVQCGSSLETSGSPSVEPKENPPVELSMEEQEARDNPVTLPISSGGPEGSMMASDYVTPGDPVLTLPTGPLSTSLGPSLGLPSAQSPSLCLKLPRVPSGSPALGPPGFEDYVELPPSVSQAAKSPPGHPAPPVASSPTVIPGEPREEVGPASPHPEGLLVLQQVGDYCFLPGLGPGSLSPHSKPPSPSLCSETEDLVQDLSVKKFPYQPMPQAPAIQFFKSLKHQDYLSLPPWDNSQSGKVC

For “GPI-GM-CSF (murine GM-CSF fused to the S. cerevesiae Gas1 GPI modification signal sequence) (from UniProt P01587 18-141; P22146 474-528) (ligand; the values are: proliferation increase over soluble GM-CSF)”, which proliferation of FDC-P1 cells (Biotrak Cell Proliferation ELISA, BrdU) is on record?
The proliferation of FDC-P1 cells (Biotrak Cell Proliferation ELISA, BrdU) was 25%.
